The values below come from PMC6294747, “Plasmodium falciparum infected erythrocytes can bind to host receptors integrins αVβ3 and αVβ6 through DBLδ1_D4 domain of PFL2665c PfEMP1 protein” (Scientific Reports, 2018).

For test [1], the target named is T1, integrin αVβ6 (R&D Systems, Cat #3817-AV) (UniProt P06756 31-1048; P18564 22-709, biotinylated (for the bead assays; sites not stated) | biotinylated (for the bead assays; sites not stated)).
T1 construct: integrin alpha-V chain of soluble recombinant αVβ6; integrin beta-6 chain of soluble recombinant αVβ6; Molecular weight 189.1 kDa according to the manufacturer; Biotinylated when used in solution on beads; immobilised on Petri dishes for the adhesion assays; also called recombinant αVβ6; source: bought: R&D Systems, Cat #3817-AV
Kind of test: Bio-Plex bead binding assay, initial velocities with Lineweaver-Burk plot; avidity constants; beads with immobilised PFL2665c DBLδ1_D4; biotinylated integrin at 3, 6 and 12 µg/ml, 0, 10, 30 min (αVβ3) or 0, 5, 15 min (αVβ6); 1xTBS, 1 mM CaCl2, 1 mM MgCl2; streptavidin-PE; corrected for HisAdEx. Conditions: both partners purified.

The target in test [2] is T2, integrin αVβ3 (R&D Systems, Cat #3050-AV) (human, UniProt P06756 31-1048; P05106 27-718, biotinylated (for the bead assays; sites not stated) | biotinylated (for the bead assays; sites not stated)).
T2 construct: integrin alpha-V chain of soluble recombinant αVβ3; integrin beta-3 chain of soluble recombinant αVβ3; Molecular weight 191.3 kDa according to the manufacturer; Biotinylated when used in solution on beads; immobilised on Petri dishes for the adhesion assays; also called αVβ3 integrin; soluble recombinant αVβ3; source: bought: R&D Systems, Cat #3050-AV
Described as above. Particulars: both partners purified.

B1: DBLδ1_D4 domain of PFL2665c PfEMP1 (single domain) (domain or fragment)
chain: GDDLKQACSTKYGPKAPTSWKCVPSGVSTATSGEGGDAKSRERREAGVPTATSSGNTTGGGKDGATGGSICVPPRRRRLYVGGLTKWAKKYTGNTGESKSQEGVLQTKAVVDGKANAEGGGQKGARGPNGGTEGANSGKGAQQQQEQQQEQQQEQQQQQQQQQQQQPHSTDSSSSPPSSNPRDVDLRNAFVESAAIETFFLWDRYKKEKEKEKEDIEKNGQDTVAYTSSVEKDPQEELQRGDIPDGFLRQMFYTLGDYRDILYSGDKENGNKYMLVDDIKDISDKIKSILNSDVGQKTTAKQWWDDNGQHIWNGMIYALTYNTDTPSGDKPTQIDEVRAQLWDEKEKKPKKTDNDHDYTYENVELKEDDDQSGAKTPSASSGSNDPINNPQLSDFVEIPTYFRWLHEWGSDFCGTRKRMLGKIKHECRGDKVCSGYGENCDDQLKDNPSIFPSLNCPSCGTPCRYYKKWINTKKTEYDKQKSAYEQQQGKCEKENNGAEGNDHDKKFCTRIQNCNEAKDFLKTLGPCRTNDESGKGTLYFDDDTFKH
Turning to B1, the Kd in test [1] turned out to be 56.4 nM; in test [2], 62 nM.
